The labels stand for the following.
B1: peptide of SEQ ID NO: 53 (peptide)
peptide: H[Aib]QGTFTSDYSIYLDKQAA[Aib]EFVNWLLAGGPSSGAPPPSC(40K‑TE)-NH2
modifications: reading uncertain
B2: peptide of SEQ ID NO: 174 (peptide)
peptide: Y[Aib]QGTFTSDYSIYLDKQAA[Aib]EFVC(40K‑TE PEG)WLLAGGPSSGAPPPSK(C14)-NH2
B3: peptide of SEQ ID NO: 48 (peptide)
peptide: H[dS]QGTFTSDYSIYLDKQAA[Aib]EFVNWLLAGGPSSGAPPPSC-NH2
modifications: N-terminus assumed
SMILES: CC[C@H](C)[C@H](NC(=O)[C@H](CO)NC(=O)[C@H](Cc1ccc(O)cc1)NC(=O)[C@H](CC(=O)O)NC(=O)[C@H](CO)NC(=O)[C@@H](NC(=O)[C@H](Cc1ccccc1)NC(=O)[C@@H](NC(=O)CNC(=O)[C@H](CCC(N)=O)NC(=O)[C@@H](CO)NC(=O)[C@@H](N)Cc1c[nH]cn1)[C@@H](C)O)[C@@H](C)O)C(=O)N[C@@H](Cc1ccc(O)cc1)C(=O)N[C@@H](CC(C)C)C(=O)N[C@@H](CC(=O)O)C(=O)N[C@@H](CCCCN)C(=O)N[C@@H](CCC(N)=O)C(=O)N[C@@H](C)C(=O)N[C@@H](C)C(=O)NC(C)(C)C(=O)N[C@@H](CCC(=O)O)C(=O)N[C@@H](Cc1ccccc1)C(=O)N[C@H](C(=O)N[C@@H](CC(N)=O)C(=O)N[C@@H](Cc1c[nH]c2ccccc12)C(=O)N[C@@H](CC(C)C)C(=O)N[C@@H](CC(C)C)C(=O)N[C@@H](C)C(=O)NCC(=O)NCC(=O)N1CCC[C@H]1C(=O)N[C@@H](CO)C(=O)N[C@@H](CO)C(=O)NCC(=O)N[C@@H](C)C(=O)N1CCC[C@H]1C(=O)N1CCC[C@H]1C(=O)N1CCC[C@H]1C(=O)N[C@@H](CO)C(=O)N[C@@H](CS)C(N)=O)C(C)C
B4: peptide of SEQ ID NO: 51 (peptide)
peptide: Y[dS]QGTFTSDYSIYLDKQAA[Aib]EFVNWLLAGGPSSGAPPPSC(40K‑TE)-NH2
modifications: reading uncertain
B5: peptide of SEQ ID NO: 52 (peptide)
peptide: H[Aib]QGTFTSDYSIYLDKQAA[Aib]EFVNWLLAGGPSSGAPPPSC-NH2
modifications: N-terminus assumed
SMILES: CC[C@H](C)[C@H](NC(=O)[C@H](CO)NC(=O)[C@H](Cc1ccc(O)cc1)NC(=O)[C@H](CC(=O)O)NC(=O)[C@H](CO)NC(=O)[C@@H](NC(=O)[C@H](Cc1ccccc1)NC(=O)[C@@H](NC(=O)CNC(=O)[C@H](CCC(N)=O)NC(=O)C(C)(C)NC(=O)[C@@H](N)Cc1c[nH]cn1)[C@@H](C)O)[C@@H](C)O)C(=O)N[C@@H](Cc1ccc(O)cc1)C(=O)N[C@@H](CC(C)C)C(=O)N[C@@H](CC(=O)O)C(=O)N[C@@H](CCCCN)C(=O)N[C@@H](CCC(N)=O)C(=O)N[C@@H](C)C(=O)N[C@@H](C)C(=O)NC(C)(C)C(=O)N[C@@H](CCC(=O)O)C(=O)N[C@@H](Cc1ccccc1)C(=O)N[C@H](C(=O)N[C@@H](CC(N)=O)C(=O)N[C@@H](Cc1c[nH]c2ccccc12)C(=O)N[C@@H](CC(C)C)C(=O)N[C@@H](CC(C)C)C(=O)N[C@@H](C)C(=O)NCC(=O)NCC(=O)N1CCC[C@H]1C(=O)N[C@@H](CO)C(=O)N[C@@H](CO)C(=O)NCC(=O)N[C@@H](C)C(=O)N1CCC[C@H]1C(=O)N1CCC[C@H]1C(=O)N1CCC[C@H]1C(=O)N[C@@H](CO)C(=O)N[C@@H](CS)C(N)=O)C(C)C
B6: peptide of SEQ ID NO: 50 (peptide)
peptide: Y[dS]QGTFTSDYSIYLDKQAA[Aib]EFVNWLLAGGPSSGAPPPSC-NH2
modifications: N-terminus assumed
SMILES: CC[C@H](C)[C@H](NC(=O)[C@H](CO)NC(=O)[C@H](Cc1ccc(O)cc1)NC(=O)[C@H](CC(=O)O)NC(=O)[C@H](CO)NC(=O)[C@@H](NC(=O)[C@H](Cc1ccccc1)NC(=O)[C@@H](NC(=O)CNC(=O)[C@H](CCC(N)=O)NC(=O)[C@@H](CO)NC(=O)[C@@H](N)Cc1ccc(O)cc1)[C@@H](C)O)[C@@H](C)O)C(=O)N[C@@H](Cc1ccc(O)cc1)C(=O)N[C@@H](CC(C)C)C(=O)N[C@@H](CC(=O)O)C(=O)N[C@@H](CCCCN)C(=O)N[C@@H](CCC(N)=O)C(=O)N[C@@H](C)C(=O)N[C@@H](C)C(=O)NC(C)(C)C(=O)N[C@@H](CCC(=O)O)C(=O)N[C@@H](Cc1ccccc1)C(=O)N[C@H](C(=O)N[C@@H](CC(N)=O)C(=O)N[C@@H](Cc1c[nH]c2ccccc12)C(=O)N[C@@H](CC(C)C)C(=O)N[C@@H](CC(C)C)C(=O)N[C@@H](C)C(=O)NCC(=O)NCC(=O)N1CCC[C@H]1C(=O)N[C@@H](CO)C(=O)N[C@@H](CO)C(=O)NCC(=O)N[C@@H](C)C(=O)N1CCC[C@H]1C(=O)N1CCC[C@H]1C(=O)N1CCC[C@H]1C(=O)N[C@@H](CO)C(=O)N[C@@H](CS)C(N)=O)C(C)C
B7: peptide of SEQ ID NO: 56 (peptide)
peptide: Y[Aib]QGTFTSDYSIYLDEQAAKEFV[Aib]WLLAGGPSSGAPPPSC-NH2
modifications: lactam (positions not given here); also: lactam between underlined residues, underlining not shown
B8: peptide of SEQ ID NO: 54 (peptide)
peptide: Y[Aib]QGTFTSDYSIYLDKQAA[Aib]EFV[Aib]WLLAGGPSSGAPPPSC-NH2
modifications: N-terminus assumed
SMILES: CC[C@H](C)[C@H](NC(=O)[C@H](CO)NC(=O)[C@H](Cc1ccc(O)cc1)NC(=O)[C@H](CC(=O)O)NC(=O)[C@H](CO)NC(=O)[C@@H](NC(=O)[C@H](Cc1ccccc1)NC(=O)[C@@H](NC(=O)CNC(=O)[C@H](CCC(N)=O)NC(=O)C(C)(C)NC(=O)[C@@H](N)Cc1ccc(O)cc1)[C@@H](C)O)[C@@H](C)O)C(=O)N[C@@H](Cc1ccc(O)cc1)C(=O)N[C@@H](CC(C)C)C(=O)N[C@@H](CC(=O)O)C(=O)N[C@@H](CCCCN)C(=O)N[C@@H](CCC(N)=O)C(=O)N[C@@H](C)C(=O)N[C@@H](C)C(=O)NC(C)(C)C(=O)N[C@@H](CCC(=O)O)C(=O)N[C@@H](Cc1ccccc1)C(=O)N[C@H](C(=O)NC(C)(C)C(=O)N[C@@H](Cc1c[nH]c2ccccc12)C(=O)N[C@@H](CC(C)C)C(=O)N[C@@H](CC(C)C)C(=O)N[C@@H](C)C(=O)NCC(=O)NCC(=O)N1CCC[C@H]1C(=O)N[C@@H](CO)C(=O)N[C@@H](CO)C(=O)NCC(=O)N[C@@H](C)C(=O)N1CCC[C@H]1C(=O)N1CCC[C@H]1C(=O)N1CCC[C@H]1C(=O)N[C@@H](CO)C(=O)N[C@@H](CS)C(N)=O)C(C)C
B9: peptide of SEQ ID NO: 60 (peptide)
peptide: Y[Aib]QGTFTSDYSIYLDKQAA[Ac3c]EFVNWLLAGGPSSGAPPPSC-NH2

Where no end group is shown, it is not given here. [ ]: non-standard residue; d: D form. 40K‑TE = not defined here; Ac3c = NC1(C(=O)O)CC1; Aib = CC(C)(N)C(=O)O

Chain of glucagon receptor (P47871 26-477 limits assumed): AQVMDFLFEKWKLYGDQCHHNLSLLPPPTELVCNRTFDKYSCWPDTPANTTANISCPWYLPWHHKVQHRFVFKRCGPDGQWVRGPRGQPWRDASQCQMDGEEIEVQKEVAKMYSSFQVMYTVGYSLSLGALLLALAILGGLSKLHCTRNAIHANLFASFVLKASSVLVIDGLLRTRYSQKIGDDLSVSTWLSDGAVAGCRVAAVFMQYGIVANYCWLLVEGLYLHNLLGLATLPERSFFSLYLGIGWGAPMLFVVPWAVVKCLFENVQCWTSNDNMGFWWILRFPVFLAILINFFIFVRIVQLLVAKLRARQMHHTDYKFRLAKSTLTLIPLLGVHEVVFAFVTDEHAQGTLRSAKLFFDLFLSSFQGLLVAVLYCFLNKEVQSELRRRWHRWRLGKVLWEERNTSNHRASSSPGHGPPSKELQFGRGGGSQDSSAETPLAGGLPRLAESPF

One test has as its target T1, GIP receptor (UniProt P48546 22-466, limits assumed).
T1 sequence (looked up): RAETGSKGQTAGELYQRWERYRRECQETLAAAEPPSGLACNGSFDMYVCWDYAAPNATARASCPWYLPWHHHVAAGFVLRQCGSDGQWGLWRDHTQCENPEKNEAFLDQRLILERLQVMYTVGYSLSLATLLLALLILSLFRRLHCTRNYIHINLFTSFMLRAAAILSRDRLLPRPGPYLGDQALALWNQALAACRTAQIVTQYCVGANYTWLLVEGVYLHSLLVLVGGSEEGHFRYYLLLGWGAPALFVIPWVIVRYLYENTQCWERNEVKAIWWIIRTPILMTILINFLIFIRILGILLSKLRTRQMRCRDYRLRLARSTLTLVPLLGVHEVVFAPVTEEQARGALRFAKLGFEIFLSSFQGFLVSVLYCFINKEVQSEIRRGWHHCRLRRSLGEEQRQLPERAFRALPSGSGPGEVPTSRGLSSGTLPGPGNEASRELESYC
Briefly: cell-based or functional assay.
Turning to B1, the “EC50 (cAMP reporter)” value was determined as 0.232 nM.
The same measure, in the same setting: next, B2: 0.019 nM; B3: 0.433 nM.
Same read-out and setting: the result for B4 reads 0.433 nM.
On the same count and under the same terms, next, B5: 0.006 nM.
For B6, the “EC50 (cAMP reporter)” value is 0.072 nM.
Still for that read-out and setting: the result for B7 reads 1.98 nM.
Still for that read-out and setting: next, B8: 0.467 nM.

The next test addresses glucagon receptor (UniProt P47871 26-477, limits assumed). Briefly: cell-based or functional assay.
Turning to B1, the “EC50 (cAMP reporter)” value was 3.51 nM.
On the same count and under the same terms, the result for B9 reads 0.047 nM.
Still for that read-out and setting: next, B3: 0.026 nM; B4: 0.255 nM.
Same read-out and setting: the result for B5 reads 0.2 nM.
On to B6, for which the “EC50 (cAMP reporter)” value is 0.041 nM.
With B7, the “EC50 (cAMP reporter)” value was found to be 1.27 nM.
The same measure, in the same setting: the result for B8 reads 0.566 nM.

The target in a further test is GLP-1 receptor (UniProt P43220 24-463, limits assumed). As to the kind of experiment: cell-based or functional assay.
As for B1, the “EC50 (cAMP reporter)” value is 0.027 nM.
On the same count and under the same terms, next, B2: 0.01 nM; B9: 0.0028 nM; B3: 0.01 nM.
On the same count and under the same terms, the result for B4 reads 0.572 nM; that for B5, 0.005 nM.
Still for that read-out and setting: next, B6: 0.108 nM.
As for B7, the “EC50 (cAMP reporter)” value came to 0.096 nM.
Still for that read-out and setting: next, B8: 0.091 nM.
